This assay concerns the target T1, MUC1 carrying sialylated Core-1 glycans expressed by the breast cancer cell line T47D (UniProt P15941 24-1255, limits assumed, O-linked sialylated Core-1 glycans).
T1 construct: whole, on cells; also called MUC1-ST on T47D cells; T47D cells (MUC1-ST+ve)
In words: staining of FFPE T47D cells with human Siglec-9 IgG fusion, DAB.

Experimental findings from patent US20190211099A1 (KING S COLLEGE LONDON, published 2019) are described below.

T1 sequence (P15941 24-1255 limits assumed, stated change not applied): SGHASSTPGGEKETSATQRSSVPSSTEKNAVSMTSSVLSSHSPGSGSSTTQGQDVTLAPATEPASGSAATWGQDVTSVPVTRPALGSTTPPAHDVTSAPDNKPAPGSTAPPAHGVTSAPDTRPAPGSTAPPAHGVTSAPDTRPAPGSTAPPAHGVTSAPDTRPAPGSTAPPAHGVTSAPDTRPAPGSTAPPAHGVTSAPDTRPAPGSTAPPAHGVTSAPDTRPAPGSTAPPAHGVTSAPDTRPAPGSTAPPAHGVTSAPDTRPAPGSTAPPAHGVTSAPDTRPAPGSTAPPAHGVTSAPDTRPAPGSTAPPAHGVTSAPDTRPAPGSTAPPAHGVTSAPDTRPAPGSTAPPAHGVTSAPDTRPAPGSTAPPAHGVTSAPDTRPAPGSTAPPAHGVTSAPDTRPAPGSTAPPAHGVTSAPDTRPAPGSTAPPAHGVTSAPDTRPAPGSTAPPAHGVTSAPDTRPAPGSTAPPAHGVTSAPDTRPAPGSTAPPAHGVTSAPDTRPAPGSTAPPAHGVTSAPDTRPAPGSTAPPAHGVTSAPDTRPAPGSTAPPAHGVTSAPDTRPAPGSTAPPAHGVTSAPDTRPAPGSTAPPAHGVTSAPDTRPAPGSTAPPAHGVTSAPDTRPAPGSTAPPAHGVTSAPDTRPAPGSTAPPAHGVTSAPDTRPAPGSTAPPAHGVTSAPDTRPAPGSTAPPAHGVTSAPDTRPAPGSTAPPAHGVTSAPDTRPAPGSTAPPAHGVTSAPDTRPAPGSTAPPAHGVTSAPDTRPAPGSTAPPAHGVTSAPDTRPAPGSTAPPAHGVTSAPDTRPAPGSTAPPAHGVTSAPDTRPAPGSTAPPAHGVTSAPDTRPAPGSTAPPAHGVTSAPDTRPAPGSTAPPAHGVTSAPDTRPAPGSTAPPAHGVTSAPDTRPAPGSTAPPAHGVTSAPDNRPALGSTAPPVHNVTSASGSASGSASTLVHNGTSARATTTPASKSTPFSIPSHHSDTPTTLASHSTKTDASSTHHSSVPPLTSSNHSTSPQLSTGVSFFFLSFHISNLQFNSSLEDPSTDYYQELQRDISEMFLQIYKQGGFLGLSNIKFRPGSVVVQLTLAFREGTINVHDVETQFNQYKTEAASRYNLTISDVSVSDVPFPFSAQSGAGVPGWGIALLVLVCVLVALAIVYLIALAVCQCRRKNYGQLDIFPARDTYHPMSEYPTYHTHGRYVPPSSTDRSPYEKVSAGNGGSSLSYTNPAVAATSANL

B1: Recombinant human Siglec-9 fusion protein (Fc fusion)
chain: TSKLLTMQSSVTVQEGLCVHVPCSFSYPSHGWIYPGPVVHGYWFREGANTDQDAPVATNNPARAVWEETRDRFHLLGDPHTKNCTLSIRDARRSDAGRYFFRMEKGSIKWNYKHHRLSVNVTALTHRPNILIPGTLESGCPQNLTCSVPWACEQGTPPMISWIGTSVSPLDPSTTRSSVLTLIPQPQDHGTSLTCQVTFPGASVTTNKTVHLNVSYPPQNLTMTVFQGDGTVSTVLGNGSSLSLPEGQSLRLVCAVDAVDSNPPARLSLSWRGLTLCPSQPSNPGVLELPWVHLRDAAEFTCRAQNPLGSQQVYLNVSLQSKATSGVTQG
notes: also called human Siglec-9 IgG fusion; recombinant Siglec 9; not shown: human IgG part of the fusion (captured with mouse anti human IgG)
As for B1, the binding result is “binds”.
